# Patent US7063950
# pKd: −log10 of the molar value.
# Molecular target: human neuronal calcium channel α1B-1α2bβ1-2 (human)
# Assay: ω-CgTx binding to transiently transfected HEK293 cells (plasmid ratio 2:1.8:1)
substance,measurement,value
ω-CgTx GVIA (from UniProt P01522 46-72) (peptide),pKd,10.26
same,binding capacity (Bmax) (sites per cell),28700
